A short description of the data set: label from the status in PepcDB records.

For the sequence “MSLRGSQLGTSRGLMLGGIDLAPVLMVLGLLLSGLGLSMLAPALVDLVVENRDWRAFLGSSVITLFCGMMLTLANWRMPLRFNIRQGFLMTALAWLTMSLFGSMPFMLATTGLDFAGAFFESVSGLTTTGATVISGLEHQPPGILFWRCLLHWIGGIGIIGMAIALLPALRVGGMQLFRTESSDTSEKGMNRIGELGLAITAVYLTLTVVIALGYIAVGMSVFDAICHAFGTVSTGGFSNWDTSLGHLDAAGLWMSTVGMMLGAMPFVLYVQVARGRPMDVVRDPQVQALTGFLVACWLVMALWQSLENGRPFLDALTASAFNITSVVTTTGYASEDYTLWGGFPQLFFFMITFAGGCTGSTSGGIKMFRYQVAYKVLSANIRRRYMPNAVIVSTYGGRAIDEDVAVSVVLFFFATGATTAIIALALTMVGLDWVTALTGTAAAIANVGPGLGTIVGPAGNYATLPDSAKWLLSLAMLMGRLEFFTLLVLFSRDFWKS”, the protein production entry is given as “failed”.

In the case of “MSLSALESSSRFEVRYFFERALECYKPFSDTVLLLPCTARKPYLTSRTHRALRSKVKVNVNEIIISSPLVVPREFELLYPAVNYDTPVTGHWSEEEVSFVAGWLKRFIEKGGFRKVVAHVTGGYRKVVERVEDEVEAEVVYTAEKDVLSDESIERLKQEIESKGKVDLYRRILEHMLSYQFGITWSGKVAGRYPELELLEGKKRLARVDRIYGMLDIYEKIAAYLLEKNIYTVEIGDFEVKGTIFAGGVLRADEKIRPNDVVVFHNSRIFGVGLAAMSGKEMAGSEKGIAINVKRKFSEGHHHHHH”, the protein production entry is listed as “not failed”.

For the sequence “MSLSASLGATRFRPDLLSLDDLDEAQLHALLTLAHQLKRGERVANLHGKVLGLVFLKASTRTRVSFTVAMYQLGGQVIDLSPSNTQVGRGEPVRDTARVLGRYVDGLAIRTFAQTELEEYAHYAGIPVINALTDHEHPCQVVADLLTIRENFGRLAGLKLAYVGDGNNVAHSLLLGCAKVGMSIAVATPEGFTPDPAVSARASEIAGRTGAEVQILRDPFEAARGAHILYTDVWTSMGQEAETQHRLQLFEQYQINAALLNCAAAEAIVLHCLPAHRGEEITDEVMEGPRSRIWDEAENRLHAQKAVLAALMGGREGHHHHHH”, the protein production result is given as “not failed”.

Consider “MSLSDRVKKIESFTLTLPRETPYLGKPRPGEEPNGRGYLVRKANRTVYPTFDRSVLVRIETENGAVGWGETYGLVAPRATMEIIDDLLADFTIGRDPFDAAAIHDDLYDLMRVRGYTGGFYVDALAAIDIALWDLAGKLAGLPVCKLLGGQRRDRIAAYISGLPEDTRAKRAELAAAWQAKGFSSFKFASPVADDGVAKEMEILRERLGPAVRIACDMHWAHTASEAVALIKAMEPHGLWFAEAPVRTEDIDGLARVAASVSTAIAVGEEWRTVHDMVPRVARRALAIVQPEMGHKGITQFMRIGAYAHVHHIKVIPHATIGAGIFLAASLQASAALANVDCHEFQHSIFEPNRRLLVGDMDCLNGEYVVPTGPGLGVEPSKEAQGLLKKHEGHHHHHH”, for which the protein production result is listed as “not failed”.

Take “MSLSELSPCHVRSGRIMTVDGPIPSSALGHTLMHEHLQNDCRCWWNPPQEPERQYLAEAPISIEILSELRQDPFVNKHNIALDDLDLAIAEVKQFAAVGGRSIVDPTCRGIGRDPVKLRRISAETGVQVVMGAGYYLASSMPETAARLSADDIADEIVAEALEGTDGTDARIGLIGEIGVSSDFTAEEEKSLRGAARAQVRTGLPLMVHLPGWFRLAHRVLDLVEEEGADLRHTVLCHMNPSHMDPVYQATLAQRGAFLEFDMIGMDFFYADQGVQCPSDDEVARAILGLADHGYLDRILLSHDVFVKMMLTRYGGNGYAFVTKHFLPRLRRHGLDDAALETLMVTNPRRVFDASIEGHHHHHH”: the protein production entry is “not failed”.

Turning to “MSLSGPRVERLEVSAYTVPTDYPESDGTLQWDSTTMILVEAHGGGRKGLGYTYGDVSVGRFVESKLAGVAEGSDALSPPAVWARMQAAIRNAGRPGVGAMAVSAVDIALWDLKARLLGLPLADALPRFHAEVPVYGSGGFTSYPLRRLQEQLGGWAAAGIPRVKMKVGREPEKDPERVRAAREAIGESVELMVDANGAYTRKQALYWAGAFAREAGISYLEEPVSSEDREGLRLLRDRGPGGVAIAAGEYEWTLPQLHDLAGCVDILQADVTRCGGITGLLRVDGICRGHQIPFSAHCAPAVSAHACCAVESLLHLEYFHDHARVERLLFDGTLDPEGGSLRPDPDRPGLGLELKRSEAGKYAAEGHHHHHH”, the protein production result was “not failed”.

Turning to “MSLSGTLIGAAAGGTVGLVASIYRDSKRKIIRDLQKQDIQYVEYGDTRTLIIPTDKYFMFSSPRLNEICYPGLNNVIRLLNFYPQSTIYVAGFTDNVGSRSHKRKLSQAQAETMMTFLWANGIAAKRLKAEGYGDKNAISDNAIIHGSAQNRRIEIQWFTSEGHHHHHH”, the protein production result is “not failed”.

In the case of “MSLSGVSHVSLTVRDLDISCRWYTEILDWKELVRGRGDTTSFAHGVLPGGLSIVLREHDGGGTDLFDETRPGLDHLSFSVESMTDLDVLEERLAKAGAAFTPTQELPFGWILAFRDADNIALEAMLGREGHHHHHH”, the protein production result is given as “not failed”.

For the sequence “MSLSIVENGRKLESTIDFSRFAQEIKQNGWKIMLAGLIVAVVAYPLISMITPKYVSTATVLLKAQQDNVSPLPQVDGYDSTRSGYYETQYALMQSRIVLEQAVRDIKLDQNPAFNGDTDKNADHRGDEQQRVDHALDSIVKNLTITGVRTTHLATISYESASPELAADIANGAAQAFIDYTARQKHLKTLKAKALNQKQMEEVWQQVVEQQAAIDQFLKKEGLLTFRGVDGFETEQLGIVTTKLADATQRRIRAETNDNSVRSNAGTSLENIISLPDISNHAQIQDLRIALIQARRSLYDLRKRYGVKHTKILEAEAQVQAIEEQTHTVLLELKAGLNKQYQAALRDEKYYQQLLEQQKVDFQTLASKRDEYNNLTTALNKTKELYKALYQRTKEQTLAGNYLEPDAILYDPAVPADHPSKPNKAMLLVMVVMLTLIFSVVYFIVRAALDNSINSISQMKKRLNVAPVGEIRTFASGVERSKVVRLITKAPLDVDIVHSMRTHILLSHPSCQAIAISSAEHGEGRSLLAHLLARSFSADQKTLLIDLDFFNDGGLTQDLANPSAIGVAELLQGQSPLDAALVIISENLSFLPRGNAVMSSLLMLSSEHVVTLMAELRTRYQRIIVDVAAVNQTQDSQLISRVIDGVVFVLKAGEWRAGDVLNAIDKVKQHRAVLIGAVMNRVADKNLETKEGIRSLNHRMNALINSTGHL”, the protein production entry is “failed”.

Regarding “MSLSRPLLFALTALSLTAASLAHAADKKAADKPAPSAVSKADKALHDKFLTLDTHLDTPAHFGRPGWDIADHHEVEHDFSQVDLPRMNQGGLDGGFFVVYIGQGELTEKGYTYARDYALHRTIEIREMLAANPDTFEMALTSDDARRIAKAGKKFAFVSMENSWPVGEDLSLVETFYKEGLRMAGPVHFRNNQLADSSTDPKGKIWNGYSPLGLRWLAEANRLGIVIDVSHASDDVVDQSVALSKAPIIASHSGPKAVYDHPRNLDDARLKKIADAGGAICINSIYLTDTTPSPERKAALEALGRAPDMKTATPEAVKAYADKRAAIDKAHPAARGDFDLYMKSMLHVLKVAGPKGVCVGADWDGGGGMDGFEDITDLPKITARLKAEGYSDADIEAIWSGNVLRIVDAAQAYAKSVTKEGHHHHHH”, the protein production result is “not failed”.

Turning to “MSLSSEVVLMKPYEKLVERFNEMAAEFLSYFPTVKSVGNLESELDKRRFVILFRAMLRLRNEVKGYNEFDAEDLTIEEQRFADYQSKYLDMSNEFAITSEKEDAESILQDIDFELELVHRDIINVMYILALLQDLKPESSSYPKDRKAVLDTMDSNPELRSKIALIDNFIKLHIDGRQSNDLPADMESDLDKYIATQKAIAIEQVATEEGIDSTLLHEYISEYEYLGKPKNEGHHHHHH”, the protein production entry is listed as “not failed”.

For “MSLSVLDAPASQPCCPTGVTPEPSSRGPSARRVALLLAGALVAWIVAYAAAHPLSRWLTFGLLGLAEGSHLGESLAFFLYDVPKVLLLLTLIVFLVGIVRSFFTAERTRAILVGKRESVGNVVAALLGVVTPFCSCSAIPLFLGFVEVGVPLGVTFSFLVSAPMVNEVALVLLLGLFGWKVAALYLVTGLTIAILAGFVLGRMKLERHVEPWVYESMKGEARFEKEHLGFAGRVERGLQAVREVVGKVWPWVVAGIAVGAGIHGYVPEGLLASFMGKSAWWSVPAAVALGVPMYSNAAGIIPVVEALLGKGAALGTVLAFMMAVIGLSLPEIVILRKVLRPPLILAFVGVVASGILLVGWLFNAVL”, the protein production result is “failed”.

As to “MSLSVTIVMIEDDLGHARLIEKNIRRAGVNNEIIAFTDGTSALNYLFGDDKSGRVSAGRAQLVLLDLNLPDMTGIDILKLVKENPHTRRSPVVILTTTDDQREIQRCYDLGANVYITKPVNYENFANAIRQLGLFFSVMQVPETEGHHHHHH”, the protein production entry is recorded as “not failed”.

Regarding “MSLTAIHRPTWVSVDLDAAAHNLQEIREWTKAKKVYAVLKADGYGLGAIPLAKAFQETASADALIVSNLDEALELRQADLTLPIWVLGAWDYSDLKLFIDHDIVITIPSLAWLQNLPDFEGTLKVSLAIDTGMTRIGFDKADEISAAKKIIDKNPQLDLFSVYTHFATADEAGEKSKAYFEEQLRRWQELTINQGFDPSLFSMANSATCIWHHDDPRISFAAIRPGQLISGVNVSNGELKMPPNLHLERIFSVCSEIADVRFVKKDQSLSYGASERMPEDGYVATLPFGYNDGWLRRMQKSSVIINGKRMPIIGRITMDQTMVKLDRKYPIGTRVTLIGKDGGEQITVEEVANYSHTIVDEIQTTLAPRIKRIYTGDLAEVIGANYGEGHHHHHH”, the protein production result was “not failed”.

On to “MSLTGTDFHVGIVGLGSMGMGAARSCLRAGLSTWGADLNPQACANLLAEGACGAAASAREFAGVVDALVILVVNAAQVRQVLFGEDGVAHLMKPGSAVMVSSTISSADAQEIAAALTALNLNMLDAPVSGGAVKAAQGEMTVMASGSEAAFTRLKPVLDAVASNVYRISDTPGAGSTVKIIHQLLAGVHIAAAAEAMALAARAGIPLDVMYDVVTHAAGNSWMFENRMQHVVDGDYTPRSAVDIFVKDLGLVADTAKALRFPLPLASTALNMFTSASNAGYGKEDDSAVIKIFSGEGHHHHHH”, for which the protein production entry is “not failed”.

Take “MSLTKYHDLKNKVIVIAGGIKNLGALTAKTFALESVNLVLHYHQAKDSDTANKLKDELEDQGAKVALYQSDLSNEEEVAKLFDFAEKEFGKVDIAINTVGKVLKKPIVETSEAEFDAMDTINNKVAYFFIKQAAKHMNPNGHIITIATSLLAAYTGFYSTYAGNKAPVEHYTRAASKELMKQQISVNAIAPGPMDTSFFYGQETKESTAFHKSQAMGNQLTKIEDIAPIIKFLTTDGWWINGQTIFANGGYTTREGHHHHHH”: the protein production result is listed as “not failed”.

As for “MSLTSSAELAEVDTLARSLLLYRSRLSEYAHANPGFSGSPADSALGLPAWFRKPVRLQGYIAAGTSYAFIASPPAGLAAAVDAGTESDLVGVRRNGQLVTRRLGAIAIALPAPIPEGAVVAVKEGHHHHHH”, the protein production entry is listed as “not failed”.

For the sequence “MSLTSTATDSPLKYYDIGLNLTDPMFHGIYNGKQYHPADYVKLLERAAQRHVKNALVTGSSIAESQSAIELVSSVKDLSPLKLYHTIGVHPCCVNEFADASQGDKASASIDNPSMDEAYNESLYAKVISNPSFAQGKLKELYDLMNQQAKPHDTSFRSIGEIGLDYDRFHYSSKEMQKVFFEEQLKISCLNDKLSSYPLFLHMRSACDDFVQILERFVVGFTDEKDTFQLQKLGASSSSGFYKFHPDRKLVVHSFTGSAIDLQKLLNLSPNIFIGVNGCSLRTEENLAVVKQIPTERLLLETDAPWCEIKRTHASFQYLAKYQEVRDFEYPAFKSVKKNKLADKLNAEELYMVKGRNEPCNMEQVAIVVSEVKDVDLATLIDTTWKTTCKIFGEGHHHHHH”, the protein production entry is “not failed”.

“MSLTTSKTRKSGVAMTEKLELDPARTAIVLIEYQNEFTSDGGVLHGAVADVMQHTGMLANTVAVVDAARQAGVPIMHAPITFAEGYGELTRHPYGILKGVVDGKAFVKGTWGAAIVDELAPVNGDIVIEGKRGLDTFASTNLDFILRSKGVDTIVLGGFLTNCCVESTMRTGYERGFRVITLTDCVAATSQEEHNNAISYDFPMFSVPMTSADVIAALEGHHHHHH”: the protein production entry is “not failed”.

The record behind these values is a protein production outcome set (Wang et al. 2014).
